The target in the assay is T1, GroEL homologue from secondary endosymbiotic bacteria of the whitefly Bemisia tabaci (endosymbiotic bacteria of Bemisia tabaci, UniProt C4K477 1-552).
T1 construct: Chaperonin expressed in planta and assayed in plant sap; also called whitefly GroEL; B. tabaci GroEL
Nature of the assay: capture of sap of infected GroEL-transgenic N. benthamiana (7 dpi) in anti-GroEL coated tubes; RT-PCR and Western blot with virus-specific antibodies.

These results are taken from patent publication US20100115665A1 (published 2010).

Description: Transgenic and non-transgenic N. benthamiana plants were mechanically inoculated with GVA and with TMV. Infection was assessed by RT-PCR and by Western blot analyses at 5-7 dpi (FIGS. 12A and 13A). The possible binding of GVA and TMV particles to GroEL in transgenic N. benthamiana plants was assessed as described above. Sap of infected transgenic plants at 7 dpi was incubated in PCR tubes coated with anti-GroEL antibody. Binding of GroEL-virus complexes to the coated tubes was assayed by RT-PCR and with virus-specific antibodies.

B1: Grapevine virus A (GVA) (other)
chain: MAHYAKRVEIRAIIEELVLAKAQPTDDASESGYDRNMYLNTLFGYIALVGTSKKAIHYGEVDIVGPKASKKTGIDPRGKMVVSELVGRMRTLSVAVSEGPVKGATLRQMCEPFAQNAYDFLVVMAEMGTYSQLATKMTRSGFKEPQVMFDFASGLDLKALTLQEATVIQAMHSRLFRTEGAKGVFNAQSSIGEQAVEI
notes: The partner in the assay is the whole filamentous virus particle in plant sap
As for B1, the binding result is recorded as “no binding”.
